Laboratory results: US20210386836

Assays:
[1] = target: T1, C-Reactive protein, P02741
T1 chain: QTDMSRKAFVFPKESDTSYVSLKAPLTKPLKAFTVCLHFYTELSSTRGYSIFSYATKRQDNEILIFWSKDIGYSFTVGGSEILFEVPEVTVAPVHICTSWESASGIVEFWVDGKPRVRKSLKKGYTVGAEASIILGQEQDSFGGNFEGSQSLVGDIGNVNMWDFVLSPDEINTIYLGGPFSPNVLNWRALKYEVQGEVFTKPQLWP

C2, P06681 = target: T2, C2, P06681
T2 chain: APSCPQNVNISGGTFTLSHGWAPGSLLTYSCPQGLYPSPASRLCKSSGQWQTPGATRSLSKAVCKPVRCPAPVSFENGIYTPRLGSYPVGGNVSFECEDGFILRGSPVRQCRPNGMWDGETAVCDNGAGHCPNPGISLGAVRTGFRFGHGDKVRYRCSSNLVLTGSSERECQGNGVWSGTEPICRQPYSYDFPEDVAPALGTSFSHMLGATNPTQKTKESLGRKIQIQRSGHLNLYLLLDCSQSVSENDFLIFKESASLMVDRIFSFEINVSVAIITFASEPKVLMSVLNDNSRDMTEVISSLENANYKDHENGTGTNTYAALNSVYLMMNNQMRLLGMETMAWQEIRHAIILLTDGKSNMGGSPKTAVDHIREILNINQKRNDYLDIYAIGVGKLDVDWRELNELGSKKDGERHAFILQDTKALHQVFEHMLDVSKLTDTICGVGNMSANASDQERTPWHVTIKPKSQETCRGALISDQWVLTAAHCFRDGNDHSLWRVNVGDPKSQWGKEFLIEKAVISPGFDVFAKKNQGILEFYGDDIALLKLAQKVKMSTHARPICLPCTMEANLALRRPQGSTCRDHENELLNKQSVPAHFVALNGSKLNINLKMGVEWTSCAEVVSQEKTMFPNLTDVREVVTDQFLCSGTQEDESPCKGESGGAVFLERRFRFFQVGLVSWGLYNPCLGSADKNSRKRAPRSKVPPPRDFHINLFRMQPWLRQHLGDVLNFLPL

β-casein = target: T3, β-casein
T3 sequence (P02666 16-224, species assumed, looked up): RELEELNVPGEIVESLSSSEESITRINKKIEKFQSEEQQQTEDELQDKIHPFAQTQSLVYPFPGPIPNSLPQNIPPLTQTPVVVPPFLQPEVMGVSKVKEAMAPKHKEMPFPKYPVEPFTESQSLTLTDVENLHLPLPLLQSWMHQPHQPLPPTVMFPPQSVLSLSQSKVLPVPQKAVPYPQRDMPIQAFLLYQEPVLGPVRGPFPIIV

Factor H, P08603 = target: T4, Factor H, P08603
T4 chain: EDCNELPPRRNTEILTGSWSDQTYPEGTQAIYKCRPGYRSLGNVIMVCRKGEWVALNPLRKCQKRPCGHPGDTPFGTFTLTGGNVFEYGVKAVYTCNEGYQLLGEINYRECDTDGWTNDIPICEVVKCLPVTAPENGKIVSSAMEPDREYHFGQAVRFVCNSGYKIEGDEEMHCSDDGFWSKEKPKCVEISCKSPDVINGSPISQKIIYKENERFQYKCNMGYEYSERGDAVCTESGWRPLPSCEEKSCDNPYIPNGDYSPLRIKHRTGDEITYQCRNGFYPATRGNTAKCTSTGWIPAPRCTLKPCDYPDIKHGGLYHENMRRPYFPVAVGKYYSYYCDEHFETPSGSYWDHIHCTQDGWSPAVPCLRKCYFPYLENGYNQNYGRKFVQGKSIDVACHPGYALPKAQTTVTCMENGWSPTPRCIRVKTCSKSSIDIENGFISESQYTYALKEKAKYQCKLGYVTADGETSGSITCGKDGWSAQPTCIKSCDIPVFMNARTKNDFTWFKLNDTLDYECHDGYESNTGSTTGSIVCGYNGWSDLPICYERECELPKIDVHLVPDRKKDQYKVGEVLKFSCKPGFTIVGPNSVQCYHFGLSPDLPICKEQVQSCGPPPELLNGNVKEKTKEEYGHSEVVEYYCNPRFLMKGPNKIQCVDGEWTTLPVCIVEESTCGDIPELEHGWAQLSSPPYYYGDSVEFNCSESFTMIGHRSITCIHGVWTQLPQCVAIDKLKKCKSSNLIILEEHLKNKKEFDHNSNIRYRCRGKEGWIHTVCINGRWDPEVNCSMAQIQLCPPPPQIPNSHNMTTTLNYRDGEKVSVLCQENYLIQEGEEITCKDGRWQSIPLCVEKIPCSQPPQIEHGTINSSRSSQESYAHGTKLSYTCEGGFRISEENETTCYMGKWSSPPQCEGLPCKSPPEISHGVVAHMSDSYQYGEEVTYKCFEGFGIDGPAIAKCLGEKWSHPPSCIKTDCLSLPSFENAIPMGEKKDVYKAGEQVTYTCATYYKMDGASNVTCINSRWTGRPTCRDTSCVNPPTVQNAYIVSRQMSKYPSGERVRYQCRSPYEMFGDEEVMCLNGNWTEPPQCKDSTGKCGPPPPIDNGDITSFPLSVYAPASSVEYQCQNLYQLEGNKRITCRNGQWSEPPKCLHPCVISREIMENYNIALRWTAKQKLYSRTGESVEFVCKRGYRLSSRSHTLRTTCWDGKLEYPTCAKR

Chain of Factor B, P00751 (P00751 26-764): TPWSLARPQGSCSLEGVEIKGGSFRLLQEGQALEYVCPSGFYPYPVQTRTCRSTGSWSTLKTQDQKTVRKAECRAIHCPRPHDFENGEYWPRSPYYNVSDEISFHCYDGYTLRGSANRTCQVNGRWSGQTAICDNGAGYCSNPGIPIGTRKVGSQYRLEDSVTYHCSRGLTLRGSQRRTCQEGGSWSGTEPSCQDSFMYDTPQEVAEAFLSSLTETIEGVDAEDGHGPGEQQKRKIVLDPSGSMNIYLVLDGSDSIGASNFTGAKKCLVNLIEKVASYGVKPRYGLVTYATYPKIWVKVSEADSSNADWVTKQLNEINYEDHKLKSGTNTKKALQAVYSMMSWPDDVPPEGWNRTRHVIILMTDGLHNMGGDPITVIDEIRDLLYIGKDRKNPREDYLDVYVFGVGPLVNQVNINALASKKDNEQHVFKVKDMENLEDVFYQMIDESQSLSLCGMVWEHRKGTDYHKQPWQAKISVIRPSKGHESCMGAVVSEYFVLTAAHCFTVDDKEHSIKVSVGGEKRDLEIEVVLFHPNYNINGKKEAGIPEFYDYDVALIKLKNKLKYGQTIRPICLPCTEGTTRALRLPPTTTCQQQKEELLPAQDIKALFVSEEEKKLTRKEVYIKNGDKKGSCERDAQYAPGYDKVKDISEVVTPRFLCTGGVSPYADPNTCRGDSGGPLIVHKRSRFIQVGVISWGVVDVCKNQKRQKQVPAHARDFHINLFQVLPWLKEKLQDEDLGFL

B1: PrtV(Pro-B) (protein)
chain: DTVNGSESVKTEATQASGSSVQDNATAKTTVTTNSNSSNNVSNVQTDTVKEAATSNVDSVASQNQATTAQQAKTTADTADQTVPPTTYKDHVKGNVQTAWDNGYKGQGMVVAVIDSGADTNHKDFSKAPESPAISKEDADKKISELGYGKYASEKFPFVYNYASRDNNWVKDDGPDASEHGQHVAGIIGADGQPNGNERYAVGVAPETQLMMMRVFNDQFADENTDDIAQAIYDAVKLGANVIQMSLGQGVAAANLNDVEQKAVEYATQHGVFVSISASNNGNSASVTGEEVPYKPGGADGNFEPFSSSTVANPGASRNAMTVAAENSVVGAGDDMADFSSWGPLQDFTLKPDVSAPGVSVTSTGNDNRYNTMSGTSMAGPFNAGVAALVMQRLKATTNLNGADLVQATKALIMNTAKPMTQQGYDTPVSPRRQGAGEIDAGAATESPVYVVAADGTSSVSLRKVGDSTQFALTFKNLSDKDQTYTFDDFGGGLTEVRDADTGTFHDVYLAGAHVYGNKTVTVKAGQSATYNFTLSLTGLKENQLVEGWLRFVGNDGQNQLVVPYLAYYGDMTSEDVFDKAANQEGTVYGGNYFVNEDNYPRGVADEDSLKALVNLEGNYNWQQVAKLYQDGKVAFSPNADGKSDLLKPYAFVKQNLKDLKVEVLDKSGKVVRVVADEQGLDKSYYESGVNKDVTLSVSMRNNPNTLAWDGKVYDDKAGEMVNAADGEYTYRYVATLYNDGVNKVQTADYPVVIDTTAPVLSNVKYDAATHTLSFDYKDTGSGFTDYSYAVVKVNDKTFGYKLNDGKNSKFLDAAKTSGTFKAVLGSDTLAALTAAKNALSVAVSDVADNTSTVTLLVNGNNDATTKVSVWNATNGLELDQSSPDYQAATSTYNLRGNATSDFYYNGALVQVDNSGNFVVPVSTSDTAVVFTSDAAGKNVVYKLNTATPKAVFAWQVNNTVKENFGIVLDTVVSNNKDDVVVQAAVTKGDNVEAYARDYFTGAVYKADVKDGLATFHVKVTNNSGRTVLLGWTEVVGPTFNDVQRTSANGVYLGVDTDTENPTPAPAFTSADQLGTNVVQEKADSATIGNPGDLPGHSLKDLTTRADANPDIHFDYLKDNDYNWVGAQAVKDGVYNPSTQVFTLTGKVDPNVKSLVVLGDSYNEDDPVNKVNLNSDGTFSFQFHTAPTSQRPVAYIYTKDDGSTTRGTMELILDTVLPTLSLNNVANLQLDSNGDYQVYTNNKDFSVSGEATDNLDGYRFFFNGDNDYREFHNSGVNFVAEAHQDGSTVTNPYPAYKFSKTFNLADATGETTHVYTLSVVDLTGNTVTRKFYVHY
casein activity assay (SDS-PAGE) (α-casein): cleaving only α-casein in a limited manner | protein cleavage assay (SDS-PAGE) (ENA-78): has activities against | protein cleavage assay (SDS-PAGE) (IL-1β): has activities against | proteolytic activity (SDS-PAGE) (Factor B, P00751): None of the complement proteins tested show evidence of breakdown | casein activity assay (SDS-PAGE) (κ-casein): cleaving only α-casein in a limited manner | proteolytic activity (SDS-PAGE) [1]: None of the complement proteins tested show evidence of breakdown | proteolytic activity (SDS-PAGE) (C4): None of the complement proteins tested show evidence of breakdown | proteolytic activity (SDS-PAGE) (C5, P01031): None of the complement proteins tested show evidence of breakdown | digestion (SDS-PAGE) (cytochrome C): did not digest | protein cleavage assay (SDS-PAGE) (TNF-α): has activities against | proteolytic activity (SDS-PAGE) (C2, P06681): None of the complement proteins tested show evidence of breakdown | casein activity assay (SDS-PAGE) (β-casein): cleaving only α-casein in a limited manner | proteolytic activity (SDS-PAGE) (C3, P01024): None of the complement proteins tested show evidence of breakdown | protein cleavage assay (SDS-PAGE) (C3a, P01024): has activities against | proteolytic activity (control of enzyme stock) (C3a, P01024): shown to be active against C3a | digestion (SDS-PAGE) (fibrinogen): did not digest | digestion (SDS-PAGE) (lysozyme): did not digest | proteolytic activity (SDS-PAGE) (Factor H, P08603): None of the complement proteins tested show evidence of breakdown
